Results as given in the Human Domainome abundance scans (Beltran et al. 2025).

B1: Neutrophil cytosol factor 2, residues 456 to 514; numbered along this chain, P19878 (parent)
chain: LKKGSQVEALFSYEATQPEDLEFQEGDIILVLSKVNEEWLEGECKGKVGIFPKVFVEDC

Variants of: B1
Test: abundance fitness (aPCA) (normalised: wild type 0, dead -1); higher = more abundant; growth selection in yeast, the domain comes from the species named
Conditions: Homo sapiens

Abundance fitness: each site, then its substitutions
F23: K -0.048; P -0.848; Y -0.517; R -0.223; H -0.117; S -0.655; Q 0.047; I -0.374; C -0.218; T -0.772; N -0.381; D -0.527; A -0.333; E -0.023; M -0.098; G -0.198; W -0.889; V -0.568
I29: S -0.374; Q -0.783; D -0.41; N -0.119; W 0.005; M -0.686; A -0.53; L -0.454; V -0.795; H -0.595; G -0.365; C -0.497; T -0.497; E -0.392; R -0.427; P 0.271
L21: V -0.225; T -0.392; N -0.538; Y -0.721; R -0.67; A -0.565; G -0.369; H -0.483; C -0.585; I -0.184; S -0.522; D -0.323; M -0.509; P -0.529; W -0.457
Q24: R -0.234; N -0.002; I -0.688; S 0.286; V -0.279; C -0.197; K 0.047; G -0.805; M -0.311; A -0.186; P -0.727; F -0.224; Y -0.44; H -0.035; L -0.535; W -0.14; D 0.235; T -0.257
D27: V -0.969; Q -0.212; R -0.323; C -0.301; K -0.365; W -0.674; S -0.666; L -0.28; P -0.783; H -0.488; I -0.179; A -0.142; F -0.493; Y -0.613; T -0.695; E -0.933; M -0.377
E25: P -0.89; G -0.201; I -0.68; L -0.731; D -0.9; W -0.78; C -0.275; T 0.035; K 0.711; M -0.264; N -0.015; S -0.239; V -0.043; H 0.447
G26: H -0.398; K 0.016; N -0.517; I -0.807; S -0.457; W -0.809; E -0.473; L -0.339; V -0.407; M -0.103; T -0.881; R -0.464; Y -1.03; D -0.683
L30: G -0.2; H 0.448; P 0.04; E 0.042; I 0.032; A -0.284; K 0.491; N 0.756; D 0.169; F -0.147; M 0.08
I28: N 0.043; R 0.338; K 0.638; V -0.264; A -0.179; L -0.284; C -0.546; T 0.163; P 0.054; Q 0.146; M -0.065; W 0.025; H 0.116; F -0.443; G -0.245; D 0.056; S 0.096; Y -0.546
D20: L -0.071; Q 0.093; W -0.7; Y 0.142; V -0.578; N -0.703; S -0.528; M 0.06; P -0.162
E22: Y -0.565; I -0.795; R -0.368; C -0.627; D -0.602; P -0.225; N -0.654; S 0.284; W -0.787; L -0.256; Q 0.395; H -0.191; T -0.24; K -0.473; A 0.103; F -0.55; V -0.389
